From patent US20220403048A1, “BINDING MOLECULES TO ARGINASE II [ARG2]” (Cancer Research Technology Limited, priority 2019, published 2022)

Biological target: T1, trimeric human ARG2 (Homo sapiens, UniProt P78540)
T1 construct: human ARG2 (aa23-354); His10 (C); made in house; host or cells: E. coli BL21 (DE3)
T1 sequence (P78540 23-354): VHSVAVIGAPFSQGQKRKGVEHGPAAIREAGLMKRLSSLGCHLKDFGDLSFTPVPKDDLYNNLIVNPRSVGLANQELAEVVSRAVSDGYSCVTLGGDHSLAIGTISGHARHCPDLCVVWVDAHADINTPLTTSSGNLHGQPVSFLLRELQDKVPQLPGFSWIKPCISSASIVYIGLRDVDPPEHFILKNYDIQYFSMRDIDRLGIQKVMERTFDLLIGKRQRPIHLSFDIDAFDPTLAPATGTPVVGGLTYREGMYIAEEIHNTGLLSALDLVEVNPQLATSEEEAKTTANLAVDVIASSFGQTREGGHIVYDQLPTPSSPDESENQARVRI
Assay: Human trimeric ARG2 enzyme inhibition assay (urea production)
Format: biochemical
Experimental: Unpurified anti-ARG2 scFv fragments from periplasmic preparations were screened in an ARG2 enzyme inhibition assay using a Pherastar plate reader (BMG Labtech, Germany). In this assay, the ability of unpurified scFv to inhibit the enzymatic activity of trimeric ARG2 was determined by measuring the production of urea, the product of L-arginine turnover by ARG2.
Selection outputs were screened as unpurified bacterial periplasmic extracts containing scFv, prepared in 200 mM TES buffer pH 7.4, 0.5 mM EDTA and 0.5 M sucrose. 10 μl of unpurified scFv were added to a Greiner Bio-One® 384 well assay plate (Greiner Bio-one, UK; cat: 781901). This was followed by the addition of 5 μl of 1.6 μg/ml trimeric human ARG2 that had been diluted in 40 mM MnCl2, 100 mM tris-HCl, pH7.4 (4× enzyme buffer). […]
Urea was detected by the simultaneous addition of equal volumes of O-Phthaldialdehyde (1.5 mM O-Phthaldialdehyde, 7% H2SO4, 0.03% Brij L23) and N-(1-Napthyl)ethylenediamine (1.66 mM N-(1-Napthyl)ethylenediamine, 81 mM Boric acid, 21% H2SO4, 0.03% Brij L23) followed by an 18 minute incubation at room temperature before the colorimetric product was quantified on the Pherastar by measuring absorbance at 505 nm. […]
Data were analysed by calculating % maximum (max) control for each sample using the 505 nm absorbance data. % max control was determined according to equation 2. […]
IC50 values were determined by testing a dilution series of the purified scFv, prepared in TBS, in the ARG2 enzyme inhibition assay described in section 1.5, substituting the unpurified scFv periplasmic preparation with the purified scFv.
Background control wells were defined for each plate by the omission of substrate. […] Data were analysed by calculating % maximum (max) control for each sample. % max control was determined according to equation 1 detailed in section 1.5. […]
Data were again analysed by calculating % Max control values for each sample. […]

inhibition of the activity of human trimeric ARG2 (purified recombinant human IgG1, FIG. 3): inhibited
inhibition of the activity of human trimeric ARG2 (purified scFv, FIG. 2): inhibited
B1: C0020065: anti-ARG2 antibody, alternate lead isolation clone, VH SEQ ID NO: 2, VL SEQ ID NO: 7 (antibody, listed as Homo sapiens, V domains shown)
VH: GVNLRESGGGVVQPGRSLRLSCAASGFTFSSYAMHWVRQAPGKGLEWVAVISYDGSNKYYVDSVKGRFTISRDNSKNTLYLQMNSLRAEDTAVYYCARDSSQLWFDYWGRGTLVTVSS
VL: QSVVTQPPSVSGAPGQRVTISCTGSSSNIGTGYDVHWYQQLPGTAPKLLIYGNSNRPSGVPDRFSGSKSGTSASLAITGLQAEDEADYYCQSYDSSLSGSVVFGGGTQLTVL
modifications: C0020065
